Measurements published in patent US9873883B2, “Glyphosate resistant plants and associated methods” (Dow AgroSciences LLC, priority 2012, dated 2018).
“And” between values parts separate entries of the source, which are not always exact repeats. Equal entries are not always repeated.

Tests used:
[1] = substrate: C=C(OP(=O)(O)O)C(=O)O; test: purified protein, by the assay type; conditions: other: pH 7.5, 1 mM S3P
[2] = substrate: C=C(OP(=O)(O)O)C(=O)O; test: In vitro kinetic assay (inorganic phosphate production, malachite green); format: biochemical, Triticum aestivum; conditions: other: pH 7.5, 1 mM S3P
From the text: The following Class I enzymes: DGT-1 from Glycine max, DGT-3 from Brassica napus (GENBANK ACC NO: P17688), and DGT-7 from Triticum aestivum (GENBANK ACC NO: EU977181) were used as a comparison. The Class I EPSP synthase enzymes and mutant variants thereof were synthesized and evaluated. A mutation introduced into the plant EPSP synthase enzymes consisted of the Glycine to Alanine mutation made within the EPSP synthase enzyme at a similar location as that of the G96A mutation from the E. coli version of the enzyme. In addition, Threonine to Isoleucine and Proline to Serine mutations were introduced within these Class I EPSP synthase enzymes at analogous positions as that of amino acid 97 (T to I) and amino acid 101 (P to S) in the EPSP synthase of E. coli as described in Funke et al., (2009).
The location of the amino acid residue which was mutated from glycine to alanine is indicated by the first asterisk. The location of the amino acid residue which was mutated from threonine to isoleucine is indicated by the second asterisk. The location of the third amino acid residue which was mutated from proline to serine is indicated by the third asterisk. These mutations were introduced into different versions of DGT-1, DGT-3, and DGT-7. The different versions of the genes which contain the mutations are described in more detail below.
Additional constructs containing the dgt-1, dgt-3 and dgt-7 were synthesized. These constructs were used for in vitro testing of the dgt-1 v5, dgt-1 v6, dgt-1 v7, dgt-1 v8, dgt-3 v6, dgt-3 v7, dgt-3 v8, dgt-7 v5, dgt-7 v6, dgt-7 v7, and dgt-7 v8 gene sequences were outsourced to GeneArt for synthesis and cloning. The synthesized genes were cloned into the pET28 expression vector. The resulting constructions were labeled as pDAB102028 containing dgt-1 v5, pDAB102029 containing dgt-1 v6, pDAB102032 containing dgt-1 v7, pDAB102034 containing dgt-1 v8, pDAB100429 containing dgt-3 v6, pDAB100442 containing dgt-3 v7, pDAB100430 containing dgt-3 v8, pDAB102036 containing dgt-7 v5, pDAB102038 containing dgt-7 v6, pDAB102040 containing dgt-7 v7, and pDAB102042 containing dgt-7 v8.
Recombinant DGT proteins were overexpressed in Rosetta2™ (DE3) cells (Novagen, Madison, Wis.) from the constructs described above. A single colony was used to inoculate 50 mL starter cultures of LB containing chloramphenicol (25 μg/mL) and kanamycin (50 μg/mL) which were cultivated overnight at 37° C. The overnight cultures were used to inoculate 1 L of LB containing chloramphenicol (25 μg/mL) and kanamycin (50 μg/mL). The cultures were grown at 37° C. to an O.D.600=0.6 then placed in an ice water bath for 10 minutes. Expression of the target proteins was achieved by addition of IPTG to a final concentration of 500 μM. Induction was allowed to proceed overnight at 20° C. followed by harvesting via centrifugation at 8,000 rpm for 20 minutes. The cell pellets were stored at −80° C. until required for purification. All purification steps were carried out at 4° C.
Cell pellets from 1 L cultures were resuspended in 20-30 mL Buffer A (50 mM HEPES pH 7.5, 150 mM KCl, 2 mM DTT, 1 mM EDTA, 20 mM imidazole, and 5% glycerol). COMPLETE™ protease inhibitor cocktail (1 tablet/50 mL, Roche, Indianapolis, Ind.) and lysozyme (1 mg/mL, Sigma-Aldrich, St. Louis, Mo.) were then added and the suspension was stirred for 20 minutes. Cell lysis was performed using a Branson Sonifier 250 (3×60 second bursts) followed by removal of the cell debris by centrifugation at 16,000 rpm for 45 minutes. […]

B1: Glycine max (soybean) EPSP synthase DGT-1 v5, native, SEQ ID NO: 59 (Glycine max) (protein)
chain: MASVAAAEKPSTSPEIVLEPIKDFSGTITLPGSKSLSNRILLLAALSEGTTVVDNLLYSEDIHYMLGALRTLGLRVEDDKTTKQAIVEGCGGLFPTSKESKDEINLFLGNAGTAMRPLTAAVVAAGGNASYVLDGVPRMRERPIGDLVAGLKQLGADVDCFLGTNCPPVRVNGKGGLPGGKVKLSGSVSSQYLTALLMAAPLALGDVEIEIVDKLISVPYVEMTLKLMERFGVSVEHSGNWDRFLVHGGQKYKSPGNAFVEGDASSASYLLAGAAITGGTITVNGCGTSSLQGDVKFAEVLEKMGAKVTWSENSVTVSGPPRDFSGRKVLRGIDVNMNKMPDVAMTLAVVALFANGPTAIRDVASWRVKETERMIAICTELRKLGATVEEGPDYCVITPPEKLNVTAIDTYDDHRMAMAFSLAACGDVPVTIKDPGCTRKTFPDYFEVLERLTKH
Km [1]: 70 µM and 73.0 µM

B2: Triticum aestivum (wheat) EPSP synthase DGT-7 v5, native (GENBANK EU977181), SEQ ID NO: 60 (Triticum aestivum) (protein)
chain: MATSVAAPAAPSGAEEVVLQPIREISGAVQLPGSKSLSNRILLLSALSEGTTVVDNLLNSEDVHYMLEALEALGLSVEADKVAKRAVVVGCGGRFPVEKDAQEEVKLFLGNAGTAMRPLTAAVVAAGGNATYVLDGVPRMRERPIGDLVVGLQQLGADADCFLGTNCPPVRINGKGGLPGGKVKLSGSISSQYLSSLLMAAPLALEDVEIEIIDKLISVPYVEMTLKLMERFGVTAEHSDSWDRFYIKGGQKYKSPGNAYVEGDASSASYFLAGAAITGGTVTVEGCGTTSLQGDVKFAEVLEMMGAKVTWTDTSVTVTGPPRQPFGRKHLKAVDVNMNKMPDVAMTLAVVALFADGPTAIRDVASWRVKETERMVAIRTELTKLGATVEEGPDYCIITPPEKLNITAIDTYDDHRMAMAFSLAACAEVPVTIRDPGCTRKTFPNYFDVLSTFVKN
Km [1]: 75.6 µM

B3: Triticum aestivum (wheat) EPSP synthase DGT-7 variant DGT-7 v6 (G→A) (Triticum aestivum; G167A) (protein)
chain: MATSVAAPAAPSGAEEVVLQPIREISGAVQLPGSKSLSNRILLLSALSEGTTVVDNLLNSEDVHYMLEALEALGLSVEADKVAKRAVVVGCGGRFPVEKDAQEEVKLFLGNAATAMRPLTAAVVAAGGNATYVLDGVPRMRERPIGDLVVGLQQLGADADCFLGTNCPPVRINGKGGLPGGKVKLSGSISSQYLSSLLMAAPLALEDVEIEIIDKLISVPYVEMTLKLMERFGVTAEHSDSWDRFYIKGGQKYKSPGNAYVEGDASSASYFLAGAAITGGTVTVEGCGTTSLQGDVKFAEVLEMMGAKVTWTDTSVTVTGPPRQPFGRKHLKAVDVNMNKMPDVAMTLAVVALFADGPTAIRDVASWRVKETERMVAIRTELTKLGATVEEGPDYCIITPPEKLNITAIDTYDDHRMAMAFSLAACAEVPVTIRDPGCTRKTFPNYFDVLSTFVKN
Km [2]: 538.2 µM
kcat/Km [2]: 16100 M⁻¹ s⁻¹

B4: Triticum aestivum (wheat) EPSP synthase DGT-7 variant DGT-7 v7 (G→A, P→S; GAPS) (Triticum aestivum; G167A/P172S) (protein)
chain: MATSVAAPAAPSGAEEVVLQPIREISGAVQLPGSKSLSNRILLLSALSEGTTVVDNLLNSEDVHYMLEALEALGLSVEADKVAKRAVVVGCGGRFPVEKDAQEEVKLFLGNAATAMRSLTAAVVAAGGNATYVLDGVPRMRERPIGDLVVGLQQLGADADCFLGTNCPPVRINGKGGLPGGKVKLSGSISSQYLSSLLMAAPLALEDVEIEIIDKLISVPYVEMTLKLMERFGVTAEHSDSWDRFYIKGGQKYKSPGNAYVEGDASSASYFLAGAAITGGTVTVEGCGTTSLQGDVKFAEVLEMMGAKVTWTDTSVTVTGPPRQPFGRKHLKAVDVNMNKMPDVAMTLAVVALFADGPTAIRDVASWRVKETERMVAIRTELTKLGATVEEGPDYCIITPPEKLNITAIDTYDDHRMAMAFSLAACAEVPVTIRDPGCTRKTFPNYFDVLSTFVKN
notes: GAPS double mutant
Km [2]: 1103.2 µM
kcat/Km [2]: 14600 M⁻¹ s⁻¹

B5: Triticum aestivum (wheat) EPSP synthase DGT-7 variant DGT-7 v8 (T→I, P→S; TIPS) (Triticum aestivum; P172S/T168I) (protein)
chain: MATSVAAPAAPSGAEEVVLQPIREISGAVQLPGSKSLSNRILLLSALSEGTTVVDNLLNSEDVHYMLEALEALGLSVEADKVAKRAVVVGCGGRFPVEKDAQEEVKLFLGNAGIAMRSLTAAVVAAGGNATYVLDGVPRMRERPIGDLVVGLQQLGADADCFLGTNCPPVRINGKGGLPGGKVKLSGSISSQYLSSLLMAAPLALEDVEIEIIDKLISVPYVEMTLKLMERFGVTAEHSDSWDRFYIKGGQKYKSPGNAYVEGDASSASYFLAGAAITGGTVTVEGCGTTSLQGDVKFAEVLEMMGAKVTWTDTSVTVTGPPRQPFGRKHLKAVDVNMNKMPDVAMTLAVVALFADGPTAIRDVASWRVKETERMVAIRTELTKLGATVEEGPDYCIITPPEKLNITAIDTYDDHRMAMAFSLAACAEVPVTIRDPGCTRKTFPNYFDVLSTFVKN
notes: TIPS double mutant
Km [2]: 60.5 µM
